{"source": "paper PMC2933939", "about": "(Bioorganic & medicinal chemistry, 2010)", "target": "Heat shock protein 90 (Hsp90), purified, native (UniProt P07900 1-732)", "test": "pull-down"}
{"binder": "FLVLL (head-to-tail cyclised macrocycle (cyclic pentapeptide))", "note": "[Sansalvamide A-amide (San A-amide), compound 1, macrocycle Phe-Leu-Val-Leu-Leu]", "values": [{"measurement": "IC50", "result": 19.7, "unit": "µM"}]}
